According to patent US12624096B2, “Anti-tau antibodies and methods of use thereof” (GTInvent Limited, priority 2020, dated 2026):
Entries after “also recorded” stand apart in the source; their conditions may differ.

Assays:
[1] = biological target: hT40 (Homo sapiens, UniProt P10636); experiment: Biacore X100 SPR, scAb captured via anti-HuCk, hT40 as analyte; assay type: binding; conditions: scAb, Table 23, T441 (hT40)
Procedure: Surface plasmon resonance (SPR) is widely regarded as the gold standard for real time measurement of protein-protein interactions such as antibody binding. All SPR experiments were carried out using a Biacore X100 machine and HBS EP+ running buffer (GE Healthcare). A ‘capture’ method was followed for affinity measurements, where an anti-human constant kappa chain (HuCk) antibody was conjugated to the surface of a CM5 sensor chip using an amine coupling kit and scAb molecules were immobilised via their HuCk domain. Amine coupling is a very common approach for immobilising the ligand to the chip surface. […] The capture antibody was diluted 1/100 in 10 mM Sodium acetate buffer pH 5.0 and passed over the activated chip surface for a period of at least 420 s. Final ligand immobilisation levels over 12,000 RU were deemed to be satisfactory.
(§1) Following immobilisation, the level of each scAb to be captured was identified using the standard SPR equation with a theoretical RMax of 100 RU. Analyte MW refers to the molecular weight of hT40 or dGA/dGAE molecules, while ligand MW refers to the molecular weight of the scAbs tested. RL is the desired capture level and S refers to the stoichiometric ratio:
The scAb to be tested was added only to flow cell 2 so that flow cell 1 could act as a control to subtract any interaction with the analyte and the chip surface. Both single and multi-cycle runs were utilised using wizards developed in the Biacore X100 control software which are both accepted methods of kinetic analysis (Karlsson, R., et al. Analyzing a kinetic titration series using affinity biosensors (2006) Analytical Biochemistry 349:136-47). The multi-cycle protocol was as follows-Three start-up cycles composed of an initial capture, to the desired level, of the scAb to be tested was performed followed by a 30 s injection of glycine buffer pH 2.0 after each cycle to regenerate the chip surface. […] Following three start-up cycles increasing concentrations (0.15625 nM-100 nM) of the target to be tested were added to the chip surface after the desired scAb capture. The target was added for a 120 s association period and 420 s dissociation period followed by another regeneration, 30 s injection of glycine buffer pH 2.0 in between each cycle.
(§2) The single cycle kinetics protocol was similar and utilised the same level of scAb capture. Three start-up cycles were used followed by 5 increasing concentrations of the analyte (6.25 nM-100 nM) for an association period of 120 s followed by a dissociation period of 420 s for each concentration. In single cycle kinetics the regeneration step was performed only after the final analyte concentration was added. Binding responses were analysed in Biacore X100 evaluation software and data fitted to a 1:1 binding model to obtain kinetic and affinity characterisation.

[2] = biological target: dGA (Homo sapiens, UniProt P10636); experiment: Biacore X100 SPR, scAb captured via anti-HuCk, dGA as analyte; assay type: binding; conditions: dissociation rate
Procedure: Surface plasmon resonance (SPR) is widely regarded as the gold standard for real time measurement of protein-protein interactions such as antibody binding. All SPR experiments were carried out using a Biacore X100 machine and HBS EP+ running buffer (GE Healthcare). A ‘capture’ method was followed for affinity measurements, where an anti-human constant kappa chain (HuCk) antibody was conjugated to the surface of a CM5 sensor chip using an amine coupling kit and scAb molecules were immobilised via their HuCk domain. Amine coupling is a very common approach for immobilising the ligand to the chip surface. The chip surface has a dextran matrix derivatised with carboxyl groups, which after activation with N-hydroxysuccinimide (NHS) and 1-ethyl-3-(3-dimethylaminopropyl) carbodiimide (EDC), form reactive succinimide esters which allows the covalent capturing of the ligand via any available primary amine groups (e.g. Lysine) on the ligand (in this case anti-HuCk antibody). The capture antibody was diluted 1/100 in 10 mM Sodium acetate buffer pH 5.0 and passed over the activated chip surface for a period of at least 420 s. Final ligand immobilisation levels over 12,000 RU were deemed to be satisfactory.
as §1
The scAb to be tested was added only to flow cell 2 so that flow cell 1 could act as a control to subtract any interaction with the analyte and the chip surface. Both single and multi-cycle runs were utilised using wizards developed in the Biacore X100 control software which are both accepted methods of kinetic analysis (Karlsson, R., et al. Analyzing a kinetic titration series using affinity biosensors (2006) Analytical Biochemistry 349:136-47). The multi-cycle protocol was as follows-Three start-up cycles composed of an initial capture, to the desired level, of the scAb to be tested was performed followed by a 30 s injection of glycine buffer pH 2.0 after each cycle to regenerate the chip surface. The regeneration step removed any captured scAb whilst leaving the capture antibody intact and able to repeat the capture for the next cycle. Following three start-up cycles increasing concentrations (0.15625 nM-100 nM) of the target to be tested were added to the chip surface after the desired scAb capture. The target was added for a 120 s association period and 420 s dissociation period followed by another regeneration, 30 s injection of glycine buffer pH 2.0 in between each cycle.
as §2

[3] = tested on: hT40, dGA, dGAE and truncated tau fragments/peptides; experiment: Binding ELISA for epitope mapping with truncated tau proteins and biotinylated 13mer peptides; parameters: species or system human; conditions: direct binding ELISA
Procedure: A series of binding ELISA was performed using various truncated versions of the tau protein and 13mer peptide libraries spanning the entire hT40 molecule for mapping the epitopes of anti-tau scAbs (Full list of protein antigens used is given in Table 14). In general, ELISA plates were coated with 1 μg/ml hT40 or dGA or dGAE or other truncated versions of the protein and in the case of biotinylated peptides, plates were coated with 5 μg/ml Streptavidin followed by 1 μg/ml biotinylated peptide. The plates were blocked with 2% MPBS and scAb samples added at desired starting concentrations and double diluted across the plate. Binding was detected using anti-Human C Kappa HRP conjugated secondary antibody and the resulting immunoreaction was developed and absorbance values measured as described above.
Similarly, dGA binding ‘NS’, ‘S’ and ‘M’ group scAbs were subjected to further antigen binding ELISA using shorter tau proteins and biotinylated 13mer peptides as shown below (FIGS. 10A-F) and (FIGS. 11A-R).
For anti-tau mAb SPR measurements (Biacore X100™) and epitope mapping, the same methodologies described above (see Example 16) were followed.

[4] = tested on: alanine substituted 13mer tau peptides; experiment: Alanine scanning mutagenesis (ASM) peptide ELISA; assay type: binding, human; conditions: numbering according to SEQ ID NO: 1; description text 'may be'
Procedure: To further elucidate epitopes of the scAb panel, and identify the critical amino acids needed for binding, alanine scanning mutagenesis of the parent 13 aa peptides for scAbs CE2, S1D12, CA4 and S1G2 was performed. […] Briefly, 5 μg/ml streptavidin (Thermo Fisher) was adsorbed to Nunc 96-well MaxiSorp plates and following incubation at 37° C., for 1 h, the plates were washed as normal and blocked with 2% MPBS. N-terminally biotinylated peptides (Prolmmune Ltd) were added to the plates and incubated for 1 h at 37° C. Subsequently, test scAbs at starting concentrations of 100-500 nM was added and double diluted across the plate for each peptide and incubated for 1 h at 37° C. Rest of the ELISA was conducted as described above and the plates were read at absorbance 450 nm. Immunoreactivity of the scAb of interest was quantified as the % of scAb was bound for each peptide at a chosen concentration (FIG. 15-20).

[5] = biological target: htau40 (Homo sapiens, UniProt P10636); experiment: Biacore X100 SPR of anti-tau mAbs on immobilised htau40; assay type: binding
Procedure: For anti-tau mAb SPR measurements, htau40 was conjugated to the surface of a CM5 sensor chip using amine coupling as explained previously. Briefly, 2 μg/mL htau40 in 10 mM Sodium acetate buffer (pH 4.0) was passed over the activated chip surface (EDC/NHS) in flow cell 2 for a period for 45 s followed by blocking with 1 M ethanolamine-HCl PH 8.5. Flow cell 1 was set up as reference control and blocked simultaneously. Final immobilisation level of htau40 (Rmax) was approximately 250 RU. Following a minimum of three start-up cycles, increasing concentrations (0.78 nM-25 nM) of the mAb in HBS-EP+ buffer was added at a rate of 30 μL/min to the chip. The mAb was added for a 120 s association period and 600 s dissociation period followed by a regeneration cycle of 30 s injection of glycine buffer pH 1.5 in between each cycle. Binding responses were analysed in Biacore X100 evaluation software and data fitted to a 1:1 binding model to obtain kinetic and affinity characterisation.
For anti-tau mAb SPR measurements (Biacore X100™) and epitope mapping, the same methodologies described above (see Example 16) were followed. Kinetic rates and equilibrium binding constants of additional anti-tau mAbs and the regions recognised on hT40 are given in the Table 25 below

[6] = tested on: human tau and mouse tau; experiment: Western blot of WT, L66+/+ and L1+/+ mouse brain homogenates; assay type: binding; conditions: 20 μg protein, 5-month-old mice
Procedure: Protein equivalent to 20 μg from each brain extract was separated using 4-20% bis-tris gels and run in 1×MES buffer.
A band is detected in each sample (WT, L66^+/+ and L1^+/+) with an apparent molecular weight of approximately 55 kDa. This band most likely corresponds to endogenous mouse tau which is of a similar size. In the L66^+/+ samples, a second band running at approximately 68 kDa is also detected. The presence of numerous other bands indicates proteolytic truncation of tau within brain homogenates.

[7] = mAb, Table 27, immobilised hT40
[8] = newly converted mAbs, Table 25 (Example 28), hT40

hT40, sequence (P10636 1-441 isoform P10636-8): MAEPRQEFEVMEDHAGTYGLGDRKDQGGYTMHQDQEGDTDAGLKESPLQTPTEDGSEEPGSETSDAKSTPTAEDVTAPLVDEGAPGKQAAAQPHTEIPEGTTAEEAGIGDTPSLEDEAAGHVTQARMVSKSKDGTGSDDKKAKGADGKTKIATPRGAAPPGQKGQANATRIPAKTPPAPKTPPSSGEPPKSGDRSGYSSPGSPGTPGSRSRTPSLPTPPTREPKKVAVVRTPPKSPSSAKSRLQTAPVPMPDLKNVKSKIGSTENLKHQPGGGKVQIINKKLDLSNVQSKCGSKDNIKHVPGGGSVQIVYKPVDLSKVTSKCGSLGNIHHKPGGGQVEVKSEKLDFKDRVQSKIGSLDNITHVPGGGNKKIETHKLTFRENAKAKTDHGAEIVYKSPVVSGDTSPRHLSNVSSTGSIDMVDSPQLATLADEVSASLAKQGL
htau40, sequence (P10636 1-441 isoform P10636-8): as above
dGA, sequence (P10636 614-707): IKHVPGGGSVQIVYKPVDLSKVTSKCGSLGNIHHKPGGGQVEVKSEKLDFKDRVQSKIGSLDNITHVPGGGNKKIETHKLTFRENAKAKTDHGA

| Molecule | ka [1] | kd [1] | Kd [2] | cross-reactivity of 'E' group scAbs using hT40, dGA and dGAE antigens [3] | Critical residues of the epitope [4] | ka [5, 7] | kd [5, 7] | ka [5, 8] | kd [5, 8] | Kd ([5]; mAb, Table 27, read-out: kD (M) for hT40 binding) | bands detected in western blot of WT, L66+/+ and L1+/+ brain homogenates [6] |
| --- | --- | --- | --- | --- | --- | --- | --- | --- | --- | --- | --- |
| CE2: anti-tau clone referred to as CE2 or E1B8, SEQ ID NO: 366 (protein, CE2/E1B8 amino acid sequence) scFv: QVQLQESGPSLVKPSQTLSLTCTVSGFSLTNYPVGWVRQAPGKALEWIGNIENDGSANYASALKSRLSITRDTSKNQVSLSLSSATTEDTAVYYCGREFGGSDGYTYFVDIDYWGPGLLVTVSSEGKSSGASGESKVDDQAVLTQPSSVSKSLGQSVSITCSGSSSNVGYGNYVSWFQQVPGSAPKILIYGATSRASGVPDRFSGSRSGNTATLTITSLQAEDEADYYCASYDGSSSGVFGSGTRLTVLG | 213700 M⁻¹ s⁻¹ | 0.001077 s⁻¹ | 0.00242 s⁻¹ | cross-reacts with dGA; also recorded: specific binding to the tau peptide representing amino acids from 313-336 | 323 (G), 324 (S), 325 (L), 326 (G), 327 (N) and/or 328 (I) | 457900 M⁻¹ s⁻¹ | 0.005218 s⁻¹ | 323800 M⁻¹ s⁻¹ | 0.001367 s⁻¹ |  |  |
| E2B7: anti-tau clone, SEQ ID NO: 254 (protein, E2B7 amino acid sequence) scFv: QVQLQESGPSLVKPSQTLSLTCTVSGFSLTSWGVAWVRQAPGKALEWLGTMRSGGGTEYNPALKSRLSITRDTSKSQVSLSLSSVTTEDMAMYYCARGYLSGIHYAWGRGLLVSVSSEGKSSGASGESKVDDQAVLTQLSSVSGSLGQRVSITCSGSSSNVGDGDYVGWFQQLPGSAPKLLIYSARNRASGVPDRFSGSRSGNTATLTITSLQAEDEADYYCASIDTSRSHIFGSGTRLTVLG |  |  |  | specific dGAE binding |  |  |  |  |  |  |  |
| NS2A1: anti-tau clone, SEQ ID NO: 220 (protein, NS2A1 amino acid sequence) scFv: QVQLQESGPSLVKPSQTLSLTCTVSGFSLSTNSVGWVRQAPGKAPEWVAGIDTDGEEGFNPVLKSRLSITRDTSKSQVSLSLSNVTSEDTAVYYCGRSYRTDGLAYGYVQAIDYWGPGLLVTISSEGKSSGASGESKVDDQSVLTQPSSVSGSPGQTVSITCSGSYIGSSGVGWFQQLPGSGLRTIIVASDGRPSGVPDGFSMSKSGNTATLTISSLQAEDEADYFCGSSDRTQYTGLFGSGTRLTVLG | 252100 M⁻¹ s⁻¹ | 0.0007393 s⁻¹ | 0.00102 s⁻¹ |  |  | 893700 M⁻¹ s⁻¹ | 0.002621 s⁻¹ |  |  | 1e-08 M |  |
| CC7: anti-tau clone, SEQ ID NO: 365 (protein, CC7 amino acid sequence) scFv: QVQLQESGPSLVKPSQTLSLTCTVSGFSLTSNAVIWVRQAPGKAPEWVALIDVDGDAAYDPALKSRLSITRDTSKSQVSLSLRSVTTEDTAVYYCARDYGSWGYVSDIDYWGPGLLVTVSSEGKSSGASGESKVDDRVVRTQPSSVSGSLGQRVSITCSGSYITGSSVGWFQQVPGSGLKTVIYDNNDRPSGVPDRFSGSKSGDTATLTISSLQAEDEADYYCASYDTSNIGLFGSGTRLTVLG | 295700 M⁻¹ s⁻¹ | 0.0003659 s⁻¹ |  |  |  | 4.576e+06 M⁻¹ s⁻¹ | 0.03164 s⁻¹ |  |  |  | show specificity for human tau |
